Molecular target: T1, wild-type CXCL12 (Homo sapiens (Human), UniProt P48061 22-89)
T1 construct: also called CXCL12WT; WT
Test: 125I-CXCL12 displacement from CXCR4
Description: A) The affinity of CXCL12 variants for CXCR4 was determined by ¹²⁵I-CXCL12 displacement. […] C) Intracellular calcium mobilization of cells stimulated by 10 nM CXCL12 variants was measured in the presence or absence of the Gαi inhibitor, pertussis toxin (PTX). From Drury, PNAS, 2011.

T1 sequence (P48061 22-89 limits assumed): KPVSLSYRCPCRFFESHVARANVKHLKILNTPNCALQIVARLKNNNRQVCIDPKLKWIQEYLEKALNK

- Kd: 25 nM
B1: CXC chemokine receptor 4 (CXCR4) (receptor, UniProt P61073 1-352, looked up)
chain: MEGISIYTSDNYTEEMGSGDYDSMKEPCFREENANFNKIFLPTIYSIIFLTGIVGNGLVILVMGYQKKLRSMTDKYRLHLSVADLLFVITLPFWAVDAVANWYFGNFLCKAVHVIYTVNLYSSVLILAFISLDRYLAIVHATNSQRPRKLLAEKVVYVGVWIPALLLTIPDFIFANVSEADDRYICDRFYPNDLWVVVFQFQHIMVGLILPGIVILSCYCIIISKLSHSKGHQKRKALKTTVILILAFFACWLPYYIGISIDSFILLEIIKQGCEFENTVHKWISITEALAFFHCCLNPILYAFLGAKFKTSAQHALTSVSRGSSLKILSKGKRGGHSSVSTESESSSFHSS
